Data on 2 substances can be found in US20160016995A1.

Series [1] deals with GFP-pdt (GFP with C-terminal wild-type M. florum ssrA tag) [GFP: P42212].
Series [2] has as its system GFP-pdt#5A (Example 1) [GFP: P42212].
Series [3] concerns GFP-pdt#5H (Example 1) [GFP: P42212].
Series [4] relates to GFP-pdt#3 (Example 1) [GFP: P42212].
Series [5] concerns GFP-pdt#2 (Example 1) [GFP: P42212].
The subject of series [6] is GFP-pdt#5B (Example 1) [GFP: P42212].
For series [7], the system named is GFP-pdt#6 (Example 1) [GFP: P42212].
The test system of series [8] is GFP-pdt#5 (Example 1) [GFP: P42212].
The test system of series [9] is untagged GFP (GFPmut3b) [GFP: P42212].
Series [10] has as its system GFP-pdt#4 (Example 1) [GFP: P42212].

Mesoplasma florum Lon protease (mf-Lon): the Fold Degradation (0 vs 50 ng/ml aTc) was found to be 7.2 fold in the series on GFP-pdt#5E [GFP: P42212]; 20.7 fold in series [1]; 18.6 fold in the series on GFP-pdt#13 [GFP: P42212]; 41.5 fold in the series with GFP-pdt#10 [GFP: P42212]; 1.6 fold with GFP-pdt#5C [GFP: P42212]; 31.7 fold in the series on GFP-pdt#7 [GFP: P42212]. In addition, the Fold Degradation (0 vs 50 ng/ml aTc) was found to be 4 fold in the series with GFP-pdt#5F [GFP: P42212]; 5.4 fold in [2]; 24.6 fold with GFP-pdt#1 [GFP: P42212]; 3.6 fold in series [3]; 38.7 fold with GFP-pdt#S3 [GFP: P42212]; 4.2 fold in the series on GFP-pdt#5G [GFP: P42212]. Also, the Fold Degradation (0 vs 50 ng/ml aTc) turned out to be 61.8 fold in [4]; 48.4 fold in the series on GFP-pdt#8 [GFP: P42212]; 12 fold with GFP-pdt#5D [GFP: P42212]; 51.8 fold in series [5]; 17 fold in the series on GFP-pdt#9 [GFP: P42212]; 2.6 fold in series [6]. Moreover, the Fold Degradation (0 vs 50 ng/ml aTc) in [7] came out at 55.4 fold; in the series with GFP-pdt#12 [GFP: P42212], 31.6 fold; in series [8], 48.7 fold; in [9], 1.2 fold; in [10], 51 fold; with GFP-pdt#S1 [GFP: P42212] it was 39.4 fold. Besides, the Fold Degradation (0 vs 50 ng/ml aTc) in the series with GFP-pdt#S2 [GFP: P42212] was 44.9 fold; with GFP-pdt#11 [GFP: P42212] it was 17.7 fold. For the same substance, the “GFP level after mf-Lon expression (Example 2)” value in series [1] is reported as “reduced to 3% of its initial levels”.
As for “mf-Lon fused to the E. coli ssrA tag variant ec-AAV”, in series [8], the “GFP-pdt#3 (Example 2 name) degradation across ATc levels” value is reported as “resulting in reduced GFP-pdt#3 degradation throughout the range of ATc levels tested”.
